This note sets out measurements from PMC12797002, “Hydrophobic residues in the α‐synuclein NAC domain drive seed‐competent fibril formation and are targeted by peptide inhibitors” (The Febs Journal, 2025).

Series [1] in a line: ThT aggregation kinetics and AFM/TEM imaging of NAC peptides. It is filed as physicochemical. Particulars: for aggregation (ThT kinetics): 15 μM ThT, 1× PBS pH 7.2, 37 °C, 1000 rpm, 48–72 h, ThT fluorescence; for aggregate morphology (AFM and TEM): after 48 h of aggregation; for Key observations: fibril formation and stability / Key observations: nucleation: summary table. As to the method:
NAC peptides stored at −80 °C were thawed on ice and centrifuged at 12 100 g for 45 s. A reaction mixture (40 μL) was prepared on ice containing 100 μM NAC peptide, either alone or in combination with inhibitor peptides at a 1 : 2 molar ratio, along with 15 μM ThT (Sigma‐Aldrich, Burlington, MA, USA; Cat. # T3516‐5G) in 1× PBS (pH 7.2). This mixture was then dispensed into a clear‐bottom, black 384‐well plate (Revvity, Waltham, MA, USA), and the plate was sealed with a TopSealA‐PLUS (Revvity) to prevent evaporation.
The aggregation kinetics was monitored on an EnSpire Multimode Plate Reader (Revvity) at 37 °C with a constant agitation of 1000 rpm. To prevent condensation in the assay plate, the upper heater temperature in the plate reader was set to 2 °C higher than the lower heater temperature. ThT (Ex: 460–490 nm, Em: 500–550 nm) fluorescence readings were recorded every 5–10 min for 48–72 h. The aggregation lag time was determined by fitting a Boltzmann sigmoidal equation to the fluorescence data in OriginPro 2024 (OriginLab Corporation, Northampton, MA, USA).
NAC peptide aggregates, collected after 48 h of the aggregation assay, were dropped onto a freshly cleaved 10 mm AFM mica disc (Ted Pella, Inc., Redding, CA, USA) and air‐dried for 10 min at room temperature. The mica discs were washed five times with deionized water and then dried for 10–15 min at room temperature. AFM imaging was performed as described, using the […] AIR probe (tip radius: 2 nm, spring constant: 0.4 N/m).
Samples were dropped on glow‐discharged carbon‐coated copper grids and negatively stained with 2% uranyl acetate. Electron microscopy was performed on a Tecnai G2 F20 microscope (FEI Technologies, Hillsboro, OR, USA) with an Eagle 4K CCD camera (FEI Technologies) or a CM100 TWIN Transmission Electron Microscope (Philips, Amsterdam, Netherlands) equipped with a side‐mounted Veleta Camera (Olympus, Tokyo, Japan) and processed in the iTEM software suite (Olympus). After bringing the images to 2048 × 2048 pixels, the pixel size at the specimen level was 1.14 nm. Approximately 20 micrographs of each specimen were recorded and evaluated.

The nature of series [2]: UV-Vis spectrophotometric analysis of soluble and insoluble fractions. It is filed as physicochemical. As to conditions: 100 μM peptide, 48 h incubation without ThT, 65 000 g 1 h, 1× PBS pH 7.2, spectra 400–600 nm; means of 3 replicates. As to the method: To fractionate aggregated samples (recombinant αSyn or NAC peptides), 20% of the aggregation mixture was set aside as the ‘total fraction’. The remaining sample was centrifuged at room temperature at 65 000 g for 1 h. The supernatant was collected as the ‘soluble fraction’ and transferred to a fresh tube. The pellet was resuspended in 80 μL of 1× PBS (pH 7.2) and centrifuged at 65 000 g for 1 h. After removing the supernatant, the pellet was resuspended in 8 μL of 1× PBS (pH 7.2), yielding a 10× concentrated ‘insoluble fraction’.
NAC peptides (100 μM) were incubated without ThT for 48 h to allow aggregation. The resulting mixtures were centrifuged at 65 000 g for 1 h to separate the soluble and insoluble fractions, as outlined above. Insoluble fractions were resuspended in an equal volume of 1× PBS (pH 7.2) as the soluble fractions. UV–Vis absorption spectra were recorded from 400 to 600 nm using an EnSpire Multimode Plate Reader (Revvity) with a resolution of 10 nm.

A short description of series [3]: ANS assay of NAC peptide aggregation at different pH. Particulars: ANS fluorescence, 100 μM peptide; for lag time at acidic pH compared with neutral pH / lag time at basic pH compared with neutral pH: 40 μM ANS, 1× PBS, 1000 rpm, n = 3; for lag time at acidic pH compared with neutral pH: acidic (pH 4.5 in legend, pH 4.2 in method) vs pH 7.2, 37 °C; for lag time at basic pH compared with neutral pH: pH 8.0 vs pH 7.2, 37 °C; for aggregation on altering pH: acidic, neutral (pH 7.2) and basic (pH 8.0) PBS, 37 °C. It counts as physicochemical. As to the method: A 40‐μL reaction mixture was prepared on ice containing 100 μM NAC peptides and 40 μM 8‐anilino‐1‐naphthalenesulfonic acid (ANS; Sigma‐Aldrich, Cat. # A1028‐5G) in 1× PBS at pH 4.2, 7.2, or 8.0. The aggregation kinetics were monitored on an EnSpire Multimode Plate Reader (Revvity) at 37 °C with a constant agitation of 1000 rpm. ANS fluorescence readings (Ex: 390 nm, Em: 475 nm) were recorded every 5–10 min for 48–72 h. The lag time of aggregation was determined by fitting a Boltzmann sigmoidal equation, as described in the previous section.

The target of a further series is T1, monomeric αSyn (Homo sapiens, UniProt P37840, A53T).
T1 construct: made in house
Briefly: In vitro seeding assay with preformed fibrils (ThT, dot blot, Coomassie gel). Particulars: for seeding of αSyn aggregation (effect on lag time) in words: 100 μM αSyn + 25 μM preformed fibrils, ThT; for αSyn dimerization (dimer-to-monomer band ratio, Coomassie gel): insoluble fractions of seeded αSyn, n = 2; for Key observations: seeding of αSyn aggregation: summary table. It is filed as biochemical. As to the method:
For the in vitro seeding assay, αSyn (100 μM), NAC35 (100 μM), NAC16 (200 μM), and NAC11 (200 μM) peptides were aggregated without ThT for 72–96 h. Fibril formation was confirmed by mixing 10 μL of the aggregated sample with 15 μM ThT and measuring fluorescence using an EnSpire Multimode Plate Reader (Revvity). Aggregates were then centrifuged to separate insoluble fractions as described above.
αSyn (100 μM) was incubated with 25 μM insoluble fractions (preformed fibrils) of αSyn, NAC35, NAC16, and NAC11 in a 100–150 μL volume per well of a 96‐well ViewPlate in the presence of 50 μM ThT. The aggregation kinetics were monitored on an EnSpire Multimode Plate Reader (Revvity) at 37 °C with a constant agitation of 1000 rpm. ThT fluorescence was recorded every 5–10 min for over 60–65 h. After aggregation, the contents of each well were collected, and insoluble fractions were isolated by centrifugation. These fractions were subsequently analyzed using dot blot analysis and Coomassie gel staining.
The samples were mixed with 2× Laemmli buffer [62.5 mM Tris/HCl (pH 6.8), 25% (w/v) glycerol, 2% SDS, and 0.01% Bromophenol Blue, supplemented with 5% (v/v) 2‐mercaptoethanol] and boiled at 95 °C for 5 min. The samples were then subjected to electrophoresis using Mini‐PROTEAN TGX 4–20% Precast gels (Bio‐Rad, Hercules, CA, USA, Cat. # 4561095) in Tris/glycine/SDS running buffer (Bio‐Rad). Gels were fixed in 50% methanol (v/v) and 10% acetic acid (v/v) for 1 h, stained with Coomassie Brilliant Blue R‐250 Staining Solution (Bio‐Rad, Cat. # 1610436EDU) for 12 h at 4 °C with gentle agitation, and destained in deionized water. Gel images were acquired using a ChemiDoc MP imaging system (Bio‐Rad), and densitometry was performed using the IMAGEJ software (RRID: SCR_003070; Bethesda, MD, USA).
Five μL of the sample (2.5 μL first, allowed to dry completely, then another 2.5 μL) was spotted onto a nitrocellulose membrane (Bio‐Rad, Cat. # 1620147), pre‐divided into uniform circular grids, and allowed to dry for 10 min at room temperature. The membrane was blocked for 1 h with 5% bovine serum albumin (BSA) in 1× Tris‐buffered saline with 0.05% Tween® 20 (TBST), followed by 3× washes with TBST. The membrane was then incubated for 1 h with anti‐α‐Synuclein (D37A6) rabbit monoclonal antibody (Cell Signaling Technology, Inc., Danvers, MA, USA, Cat. # 4179, RRID: AB_1904156), which recognizes an epitope surrounding Glu105 in the C‐terminal region of αSyn, and was used at a 1 : 2000 dilution in 5% BSA/TBST. After 3× washes with TBST, the blot was incubated with Alexa Fluor™ 647 Goat anti‐Rabbit IgG (Thermo Fisher Scientific; Cat. # A‐21245) at a 1 : 5000 dilution for 1 h. The blot was imaged using the ChemiDoc MP imaging system (Bio‐Rad), and densitometry was performed using IMAGEJ.

“Also recorded” adds a separate entry of the source.

Consider “NAC35: peptide of the entire NAC domain, corresponding to αSyn 61–95”, for which, in series [1] (100 μM peptide, n = 3), the “aggregation (ThT kinetics)” value is on record as “readily underwent aggregation”. Moreover, in series [1], the “aggregate morphology (AFM and TEM)” value is on record as “elongated fibrils with clumped tangles”; the “Key observations: fibril formation and stability” value is listed as “forms robust fibrils with enhanced stability”; the “Key observations: nucleation” value is reported as “Slow nucleation”. Further, in series [2], the “solubility: UV–Vis absorption of soluble and insoluble fractions” value is reported as “clear increase in absorbance in the insoluble fraction”. Also, in series [3], the “lag time at acidic pH compared with neutral pH” value is recorded as “shortened the lag time” and the “lag time at basic pH compared with neutral pH” value is reported as “increased it”. Also, in the series with monomeric αSyn, the “seeding of αSyn aggregation (effect on lag time) in words” value is reported as “significantly shortened the lag time”; the “αSyn dimerization (dimer-to-monomer band ratio, Coomassie gel)” value is given as “significantly increased αSyn dimerization”; the “Key observations: seeding of αSyn aggregation” value was “effective seeding of αSyn aggregation”. Further, the “insoluble fraction of seeded αSyn (dot blot)” value with monomeric αSyn (αSyn aggregated for 72 h with preformed fibrils, n = 3) is “increased insoluble fractions”.

For “NAC12: truncated NAC peptide corresponding to αSyn 71–82 (VTGVTAVAQKTV)”, the “aggregation (ThT kinetics)” value in series [1] (100 μM peptide, n = 3) is recorded as “did not aggregate”. In addition, in series [1], the “aggregate morphology (AFM and TEM)” value was “no fibrillar or aggregated structures were formed”; the “Key observations: fibril formation and stability” value is “No nucleation or fibril formation observed”; the “Key observations: nucleation” value is given as “No nucleation or fibril formation observed”. For the same substance, in series [2], the “solubility: UV–Vis absorption of soluble and insoluble fractions” value is “indistinguishable spectra for soluble and insoluble fractions; also recorded: remained fully soluble”. The “aggregation on altering pH” value in series [3] is “did not induce”.

“NAC16: truncated NAC peptide corresponding to αSyn 63–78 (VTNVGGAVVTGVTAVA)”: the “aggregation (ThT kinetics)” value in series [1] (100 μM peptide, n = 3) was “readily underwent aggregation”. The “lag time of aggregation compared with NAC35” value in series [1] (ThT readings 0–10 h, Boltzmann sigmoidal fit, 100 μM peptide, PBS pH 7.2, 37 °C, n = 3) is on record as “shorter lag time of aggregation than NAC35”. Also, in series [1], the “aggregate morphology (AFM and TEM)” value is “elongated fibrils with clumped tangles”; the “Key observations: fibril formation and stability” value is “moderately stable fibrils”; the “Key observations: nucleation” value is “Rapid nucleation”. In series [2], the “solubility: UV–Vis absorption of soluble and insoluble fractions” value is “clear increase in absorbance in the insoluble fraction”. In addition, in series [3], the “lag time at acidic pH compared with neutral pH” value is “longer lag times” and the “lag time at basic pH compared with neutral pH” value is “longer lag times”. Besides, in the series with monomeric αSyn, the “seeding of αSyn aggregation (effect on lag time) in words” value is recorded as “fail to seed αSyn aggregation”; the “αSyn dimerization (dimer-to-monomer band ratio, Coomassie gel)” value is reported as “did not promote dimerization or aggregation”; the “Key observations: seeding of αSyn aggregation” value was “lacks seeding ability”.

As for “NAC17: truncated NAC peptide corresponding to αSyn 79–95 (QKTVEGAGSIAAATGFV)”, in series [1] (100 μM peptide, n = 3), the “aggregation (ThT kinetics)” value was “did not aggregate”. In series [1], the “aggregate morphology (AFM and TEM)” value was “no fibrillar or aggregated structures were formed”; the “Key observations: fibril formation and stability” value is listed as “No nucleation or fibril formation observed”; the “Key observations: nucleation” value is given as “No nucleation or fibril formation observed”. Further, the “solubility: UV–Vis absorption of soluble and insoluble fractions” value in series [2] was “indistinguishable spectra for soluble and insoluble fractions; also recorded: remained fully soluble”. In series [3], the “aggregation on altering pH” value is “did not induce”.

For the substance “NAC8: shortest NAC peptide, eight residues, corresponding to αSyn 72–79 (TGVTAVAQ)”, in series [1] (100 μM peptide, n = 3), the “aggregation (ThT kinetics)” value is “did not aggregate”. Further, in series [1], the “aggregate morphology (AFM and TEM)” value was “no fibrillar or aggregated structures were formed”; the “Key observations: fibril formation and stability” value is reported as “No nucleation or fibril formation observed”; the “Key observations: nucleation” value was “No nucleation or fibril formation observed”. In series [2], the “solubility: UV–Vis absorption of soluble and insoluble fractions” value was “indistinguishable spectra for soluble and insoluble fractions; also recorded: remained fully soluble”. Moreover, the “aggregation on altering pH” value in series [3] is on record as “did not induce”.
